According to US20260242735A1 (UNIVERSIT T BASEL, published 2026):

Assays:
Test in all cases: flow cytometry, mutant on cells, IgG
[1] = target: human CD33 I47G (human, UniProt P20138 18-364)
Protocol: (§1) An alanine scan on human CD33 was performed to the determine the residues on CD33 that are involved in binding to the antibodies investigated. […] Briefly, a mutation library of CD33 was created by high-throughput, site-directed mutagenesis. Each residue was individually mutated to alanine, with alanine codons mutated to serine. The mutant library was arrayed in 384-well microplates and transiently transfected into HEK293-T. Following transfection, cells were incubated with the indicated antibodies (IgG or Fab) at concentrations pre-determined using an independent immunofluorescence titration curve on wild type CD33. […] Binding of each antibody to each mutant clone was determined in duplicates. For each point, background fluorescence was subtracted from the raw data, which were then normalized to antibody reactivity with wild type CD33.
(§2) Antibodies were screened for binding to the human CD33 variants in IgG format. […] For each mutation, background fluorescence was subtracted from the raw data, which were then normalized to antibody reactivity with wild-type CD33.

[2] = target: human CD33 N20Y (human, UniProt P20138 18-364)
Protocol: as §1, §2

[3] = target: human CD33 W22E (human, UniProt P20138 18-364)
Protocol: as §1, §2

[4] = target: human CD33 V25L (human, UniProt P20138 18-364)
Protocol: as §1, §2

[5] = target: human CD33 P46Y (human, UniProt P20138 18-364)
Protocol: as §1, §2

[6] = target: human CD33 F44I (human, UniProt P20138 18-364)
Protocol: as §1, §2

[7] = target: human CD33 F44H (human, UniProt P20138 18-364)
Sequence of human CD33 F44H (P20138 18-364 F44H limits assumed): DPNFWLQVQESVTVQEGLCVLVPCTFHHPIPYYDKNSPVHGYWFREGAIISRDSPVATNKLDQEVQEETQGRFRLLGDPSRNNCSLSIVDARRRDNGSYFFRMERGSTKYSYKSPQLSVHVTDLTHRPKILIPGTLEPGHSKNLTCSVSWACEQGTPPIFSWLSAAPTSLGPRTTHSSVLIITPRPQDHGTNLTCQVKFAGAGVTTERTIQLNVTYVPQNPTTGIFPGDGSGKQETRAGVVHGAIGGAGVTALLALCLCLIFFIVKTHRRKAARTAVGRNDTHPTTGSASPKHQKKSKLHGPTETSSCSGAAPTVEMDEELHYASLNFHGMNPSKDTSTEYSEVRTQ
Protocol: as §1, §2

[8] = target: human CD33 H45Y (human, UniProt P20138 18-364)
Sequence of human CD33 H45Y (P20138 18-364 H45Y limits assumed): as the sequence (P20138 18-364 F44H limits assumed) above, with H27F, H28Y counted along it
Protocol: as §1, §2

[9] = target: human CD33 P19K (human, UniProt P20138 18-364)
Sequence of human CD33 P19K (P20138 18-364 P19K limits assumed): as the sequence (P20138 18-364 F44H limits assumed) above, with P2K, H27F counted along it
Protocol: as §1, §2

[10] = target: human CD33 P46H (human, UniProt P20138 18-364)
Protocol: as §1, §2

[11] = target: human CD33 V25M (human, UniProt P20138 18-364)
Protocol: as §1, §2

[12] = target: human CD33 F44L (human, UniProt P20138 18-364)
Protocol: as §1, §2

[13] = target: human CD33 I47S (human, UniProt P20138 18-364)
Sequence of human CD33 I47S (P20138 18-364 I47S limits assumed): as the sequence (P20138 18-364 F44H limits assumed) above, with H27F, I30S counted along it
Protocol: as §1, §2

[14] = target: human CD33 T42N (human, UniProt P20138 18-364)
Protocol: as §1, §2

[15] = target: human CD33 Q24H (human, UniProt P20138 18-364)
Protocol: as §1, §2

[16] = target: human CD33 W22S (human, UniProt P20138 18-364)
Protocol: as §1, §2

[17] = target: human CD33 F21V (human, UniProt P20138 18-364)
Protocol: as §1, §2

[18] = target: human CD33 I47T (human, UniProt P20138 18-364)
Protocol: as §1, §2

[19] = target: human CD33 N20D (human, UniProt P20138 18-364)
Sequence of human CD33 N20D (P20138 18-364 N20D limits assumed): as the sequence (P20138 18-364 F44H limits assumed) above, with N3D, H27F counted along it
Protocol: as §1, §2

[20] = target: human CD33 W22Q (human, UniProt P20138 18-364)
Protocol: as §1, §2

[21] = target: human CD33 N20Q (human, UniProt P20138 18-364)
Sequence of human CD33 N20Q (P20138 18-364 N20Q limits assumed): as the sequence (P20138 18-364 F44H limits assumed) above, with N3Q, H27F counted along it
Protocol: as §1, §2

[22] = target: human CD33 Q24V (human, UniProt P20138 18-364)
Protocol: as §1, §2

[23] = target: human CD33 W22P (human, UniProt P20138 18-364)
Sequence of human CD33 W22P (P20138 18-364 W22P limits assumed): as the sequence (P20138 18-364 F44H limits assumed) above, with W5P, H27F counted along it
Protocol: as §1, §2

[24] = target: human CD33 D18R (human, UniProt P20138 19-364)
Protocol: as §1, §2

[25] = target: human CD33 Q24I (human, UniProt P20138 18-364)
Protocol: as §1, §2

[26] = target: human CD33 F44V (human, UniProt P20138 18-364)
Protocol: as §1, §2

[27] = target: human CD33 F44E (human, UniProt P20138 18-364)
Sequence of human CD33 F44E (P20138 18-364 F44E limits assumed): as the sequence (P20138 18-364 F44H limits assumed) above, with H27E counted along it
Protocol: as §1, §2

[28] = target: human CD33 W22Y (human, UniProt P20138 18-364)
Sequence of human CD33 W22Y (P20138 18-364 W22Y limits assumed): as the sequence (P20138 18-364 F44H limits assumed) above, with W5Y, H27F counted along it
Protocol: as §1, §2

[29] = target: human CD33 Q24E (human, UniProt P20138 18-364)
Protocol: as §1, §2

[30] = target: human CD33 F43L (human, UniProt P20138 18-364)
Sequence of human CD33 F43L (P20138 18-364 F43L limits assumed): as the sequence (P20138 18-364 F44H limits assumed) above, with F26L, H27F counted along it
Protocol: as §1, §2

[31] = target: human CD33 P46S (human, UniProt P20138 18-364)
Sequence of human CD33 P46S (P20138 18-364 P46S limits assumed): as the sequence (P20138 18-364 F44H limits assumed) above, with H27F, P29S counted along it
Protocol: as §1, §2

[32] = target: human CD33 W22N (human, UniProt P20138 18-364)
Protocol: as §1, §2

[33] = target: human CD33 P46D (human, UniProt P20138 18-364)
Sequence of human CD33 P46D (P20138 18-364 P46D limits assumed): as the sequence (P20138 18-364 F44H limits assumed) above, with H27F, P29D counted along it
Protocol: as §1, §2

[34] = target: human CD33 W22L (human, UniProt P20138 18-364)
Protocol: as §1, §2

[35] = target: human CD33 V25I (human, UniProt P20138 18-364)
Protocol: as §1, §2

[36] = target: human CD33 W22G (human, UniProt P20138 18-364)
Protocol: as §1, §2

[37] = target: human CD33 F21H (human, UniProt P20138 18-364)
Sequence of human CD33 F21H (P20138 18-364 F21H limits assumed): as the sequence (P20138 18-364 F44H limits assumed) above, with F4H, H27F counted along it
Protocol: as §1, §2

Sequence of human CD33 I47G (P20138 18-364 I47G limits assumed): as the sequence (P20138 18-364 F44H limits assumed) above, with H27F, I30G counted along it

B1: Refmab #4 (antibody, human IgG1, V domains shown)
VH: QVQLVQSGAEVKKPGESVKVSCKASGYTFTNYGMNWVKQAPGQGLEWMGWINTYTGEPTYADKFQGRVTMTTDTSTSTAYMEIRNLGGDDTAVYYCARWSWSDGYYVYFDYWGQGTSVTVSS
VL: DIVMTQSPDSLTVSLGERTTINCKSSQSVLDSSTNKNSLAWYQQKPGQPPKLLLSWASTRESGIPDRFSGSGSGTDFTLTIDSPQPEDSATYYCQQSAHFPITFGQGTRLEIK
notes: Tested in IgG format; human IgG1 Fc silent (PG-LALA)
[1]
  Mean % WT Binding: 72.5 % WT binding
[2]
  Mean % WT Binding: 25.7 % WT binding
[3]
  Mean % WT Binding: 99.4 % WT binding
[4]
  Mean % WT Binding: 95 % WT binding
[5]
  Mean % WT Binding: 26.5 % WT binding
[6]
  Mean % WT Binding: 98.7 % WT binding
[7]
  Mean % WT Binding: 84.9 % WT binding
[8]
  Mean % WT Binding: 79.2 % WT binding
[9]
  Mean % WT Binding: 92 % WT binding
[10]
  Mean % WT Binding: 69.5 % WT binding
[11]
  Mean % WT Binding: 81.1 % WT binding
[12]
  Mean % WT Binding: 100 % WT binding
[13]
  Mean % WT Binding: 90.1 % WT binding
[14]
  Mean % WT Binding: 101 % WT binding
[15]
  Mean % WT Binding: 93.2 % WT binding
[16]
  Mean % WT Binding: 103 % WT binding
[17]
  Mean % WT Binding: 118 % WT binding
[18]
  Mean % WT Binding: 82.4 % WT binding
[19]
  Mean % WT Binding: 91.3 % WT binding
[20]
  Mean % WT Binding: 111 % WT binding
[21]
  Mean % WT Binding: 99.4 % WT binding
[22]
  Mean % WT Binding: 81.5 % WT binding
[23]
  Mean % WT Binding: 104 % WT binding
[24]
  Mean % WT Binding: 100 % WT binding
[25]
  Mean % WT Binding: 86.6 % WT binding
[26]
  Mean % WT Binding: 96.6 % WT binding
[27]
  Mean % WT Binding: 112 % WT binding
[28]
  Mean % WT Binding: 86.1 % WT binding
[29]
  Mean % WT Binding: 69.7 % WT binding
[30]
  Mean % WT Binding: 100 % WT binding
[31]
  Mean % WT Binding: 107 % WT binding
[32]
  Mean % WT Binding: 100 % WT binding
[33]
  Mean % WT Binding: 110 % WT binding
[34]
  Mean % WT Binding: 108 % WT binding
[35]
  Mean % WT Binding: 104 % WT binding
[36]
  Mean % WT Binding: 105 % WT binding
[37]
  Mean % WT Binding: 123 % WT binding
